± gives the standard deviation of the averaged measurements.

This data set has as its system VchCAST RNA-guided transposition machinery (E. coli BL21(DE3) host, lacZ target). The data set can be described thus: relative integration efficiency (T-LR orientation) vs wild-type transposon end (log2 (normalized fold change)); transposon end mutated: right end (5 bp flank + 75 bp right end); higher = more efficient transposition. In outline: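 Relative integration efficiency is a fold change of output over input barcode abundance, normalised to reference barcodes and log-transformed. Input plasmids and genomic integration junctions were PCR-amplified and Illumina-sequenced from E. coli BL21(DE3) co-transformed with a T7-driven effector plasmid and pUC57 donor pools of 1549 left-end or 1849 right-end transposon variants. Plating was done with 0.1 mM IPTG at 37°C for 18 h, with two biological output replicates and four reference barcodes.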
For “ACATTTGTTGATACAACCATAAAATGATAATTCAACCCATAAATTGATAATTATCACACCCATAAATTGATATTGCCTCTGATCATAGTCAGACCAACATTGCTACGACCCGTATTCGCACCGACAC”, the “relative integration efficiency (log2)” value was determined as 0.119 ± 0.3.
For the sequence “ACATTTGTTGATACAACCATTAAATGTTAATTCCACCCATAAATTGATAATTATCACACCCAATTTAACTATAACGCTCTGATCATAGTCAGACCAACATTGCTACGACCCGTATTCGCACCGACAC”, the “relative integration efficiency (log2)” value came out at 1.73 ± 0.32.
Next, “ACATTGTTTGATACAACCATAAAATGATAATTACACCCATAAATTGATAATTATCACACCCATAAATTGATATTGCCTCTGATCATAGTCAGACCAACATTGCTACGACCCGTATTCGCACCGACAC”: -4.94 ± 0.3.
Next, “ACATTTGTCGATCCAACCATAAAATGATAATTACACCCATAAATGGATAATTATCACACCCAATTTAACTATAACGCTCTGATCATAGTCAGACCAACATTGCTACGACCCGTATTCGCACCGACAC”: 1.38 ± 0.094; “ACATTTGTTGATACAACCATATATTGATATCTCCAACCATAAGTTGATATTTTTCAGTGGGTATTTAACTATAACGCTCTGATCATAGTCAGACCAACATTGCTACGACCCGTATTCGCACCGACAC”: 2.468 ± 0.015; “ACATTTGTTGATACAACCATAAAATGATAATTACACCCATAAATTGATAATTAAGACACCCATAAATTGATATTGCCTCTGATCATAGTCAGACCAACATTGCTACGACCCGTATTCGCACCGACAC”: -0.137 ± 0.32.
Next, “TGTAATGTTGATACAACCATAAAATGATAATTACACCCATAAATTGATAATTATCACACCCATAAATTGATATTGCCTCTGATCATAGTCAGACCAACATTGCTACGACCCGTATTCGCACCGACAC”: -0.169 ± 0.51; “ACATTTGTTGATACAACCATAAAATGATAATTACACCCATAAATTGATAATTATCTGACCCATAAATTGATATTGCCTCTGATCATAGTCAGACCAACATTGCTACGACCCGTATTCGCACCGACAC”: 0.513 ± 0.03.
Consider “ACATTTGTGGATACAACCATAAAATGATAATTACACCCATAAATGGATTATTATCACACCCAATTTAACTATAACGCTCTGATCATAGTCAGACCAACATTGCTACGACCCGTATTCGCACCGACAC”, for which the “relative integration efficiency (log2)” value was 1.2 ± 0.22.
Next, “ACATTTGTTGATACAACCATAAAATGATAATTACACCCATAAATTGATAATTATCACACAACGCCCGGTCGCGGTAAGAGGATCATAGTCAGACCAACATTGCTACGACCCGTATTCGCACCGACAC”: 2.32 ± 0.24; “ACATTTGTTGATACAACCATAAAAGGATCATTACACCCATCAATTGATAATTATCCCACCCCATTTAACTATAACGCTCTGATCATAGTCAGACCAACATTGCTACGACCCGTATTCGCACCGACAC”: -0.014 ± 0.4; “ACATTTGTTGATACAACCATATATTGATATCTCCACCCATAAATTGATATTGCTCACACCCATAAATTGATATTGCCTCTGATCATAGTCAGACCAACATTGCTACGACCCGTATTCGCACCGACAC”: 0.466 ± 0.081.
As for “ACATTTGTTGATACAACCATAAAATGATAATTAATAATTATTTATAATCAGCAACTTAACCACAACACCCATAAATTGATAATTATCAACAAACGCCCGGTCGCGGTACTCTGATCATAGTCAGACC”, the figure is -0.0981 ± 0.042; as for “ACATTTGTTGATACACCCATAAAATGATAATTACAACCATAAATTGATAATTATCACAACCATAAATTGATATTGCCTCTGATCATAGTCAGACCAACATTGCTACGACCCGTATTCGCACCGACAC”, -0.642 ± 0.019; as for “ACATTTCTCGATACAACCATAAAATGATAATTACACCCATAAATTCATCATTATCACACCCAATTTAACTATAACGCTCTGATCATAGTCAGACCAACATTGCTACGACCCGTATTCGCACCGACAC”, 0.303 ± 0.055.
Next, “ACATTTGTTGATACAACCAATAAATGATAATTACACCCATAAATTGATAATTATCACACCCATAAATTGATATTGCCTCTGATCATAGTCAGACCAACATTGCTACGACCCGTATTCGCACCGACAC”: -0.407 ± 0.67.
For the sequence “ACATTTGTTGATACACCCATAAATTGATAATTACACCCATAAATTGATATTGCTCACACCCATAAATTGATATTGCCTCTGATCATAGTCAGACCAACATTGCTACGACCCGTATTCGCACCGACAC”, the “relative integration efficiency (log2)” value is 0.393 ± 0.28.
Regarding “ACATTTGTTGATACAACCATAAAATGATAATTACTCTGATCATAGTCAGACCAACATTGCTACGACCCGTATTCACCCATAAATTGATAATTATCAGTGGGTATTTAACTATAACGCGCACCGACAC”, the “relative integration efficiency (log2)” value was found to be 1.08 ± 0.33.
Next, “ACATTTGTTGATACAACCATAAAATGATAATTCACCCCTAAATTGATAATTATCACACCCACATTTAACTATAACGCTCTGATCATAGTCAGACCAACATTGCTACGACCCGTATTCGCACCGACAC”: -0.17 ± 0.1; “ACATTTGTTGATACAACCATAAAATGCGCCGGCCACCCATAAATTGCGCCGGCTCACACCCATAAATTGCGCGGTACTCTGATCATAGTCAGACCAACATTGCTACGACCCGTATTCGCACCGACAC”: -3.06 ± 0.22; “ACATTTGTTGATACAACCATAAAATGATAATTACTCTGATCATAGTCAGACCACACCCATAAATTGATAATTATCAGTGGGTATTTAACTATAACGACATTGCTACGACCCGTATTCGCACCGACAC”: 2.27 ± 0.15.
Next, “ACATTTGTTGATACAACCATAAAATGATAATTACACAACGCCCGGTCGCCGGCGACACAAACGCCCGGTCGCGGTAAGAGGATCATAGTCAGACCAACATTGCTACGACCCGTATTCGCACCGACAC”: 0.604 ± 0.2.
As for “ACATTTGTTGATACAACCATACAATGATAATTACACCCATACATTGATAATTATCACACCCATACATTGATATTGCCTCTGATCATAGTCAGACCAACATTGCTACGACCCGTATTCGCACCGACAC”, the figure is -1.3 ± 0.016; as for “ACATTTGTTCATACAACCATAAAATGATAATTACACCCATAAATTCATCATTATCACCCCCAATTTAACTATAACGCTCTGATCATAGTCAGACCAACATTGCTACGACCCGTATTCGCACCGACAC”, 0.174 ± 0.27; as for “ACATTTGTTGATACAACCATATATTGATATCTCCAACCATATATTGATATCTCTCACAACCATAAAGTGATATTTACTCTGATCATAGTCAGACCAACATTGCTACGACCCGTATTCGCACCGACAC”, 0.0811 ± 0.2.
For the sequence “ACATTTGTTGATACAACCATAAAATGATAATTACACCCATAAATTGATAATAATGACACCGAATTTAACTATAACGCTCTGATCATAGTCAGACCAACATTGCTACGACCCGTATTCGCACCGACAC”, the “relative integration efficiency (log2)” value was determined as 5.35 ± 0.24.
As for “ACATTTGTTGATACAACCATAAAATGATAATTACACCCATAAATTGATAATTATCACACCCATAAATTTCGCGGTAAGAGGATCATAGTCAGACCAACATTGCTACGACCCGTATTCGCACCGACAC”, the “relative integration efficiency (log2)” value stood at 2.22 ± 0.05.
Next, “ACATTTGTTGTAACAACCATAAAATGATAATTACACCCATAAATTGATAATTATCACACCCATAAATTGATATTGCCTCTGATCATAGTCAGACCAACATTGCTACGACCCGTATTCGCACCGACAC”: -1.09 ± 0.54; “ACATTTGTTGATACAACCATTAAATGATAATTCCACCCAAATATTGATAATTATCACACCCAATTTAACTATAACGCTCTGATCATAGTCAGACCAACATTGCTACGACCCGTATTCGCACCGACAC”: 1.47 ± 0.08; “ACTATTGTTGATACAACCATAAAATGATAATTACACCCATAAATTGATAATTATCACACCCATAAATTGATATTGCCTCTGATCATAGTCAGACCAACATTGCTACGACCCGTATTCGCACCGACAC”: 0.436 ± 0.12.
With “ACATTTGTTGATACAACCATAAAATGATAATTACACCCATAAATTGATAATTATCACACCCATAAATTGATATTGCGAGAGATCATAGTCAGACCAACATTGCTACGACCCGTATTCGCACCGACAC”, the “relative integration efficiency (log2)” value was -0.165 ± 0.12.
Next, “ACATTTGTTGATCCAACCATAAAATGATAATTACACCCATAAATTCATCATTATCACACCCAATTTAACTATAACGCTCTGATCATAGTCAGACCAACATTGCTACGACCCGTATTCGCACCGACAC”: 1.23 ± 0.14.

Source of the values: the supplement of paper PMC10201428.
